# Source: patent US20230265151A1, “GIP/GLP1 CO-AGONIST COMPOUNDS” (priority 2020, published 2023)
# Numbering of substitutions follows the chain as printed.
# T1: human glucose-dependent insulinotropic polypeptide (GIP) receptor (human, UniProt P48546 22-466)
# T1 sequence (looked up): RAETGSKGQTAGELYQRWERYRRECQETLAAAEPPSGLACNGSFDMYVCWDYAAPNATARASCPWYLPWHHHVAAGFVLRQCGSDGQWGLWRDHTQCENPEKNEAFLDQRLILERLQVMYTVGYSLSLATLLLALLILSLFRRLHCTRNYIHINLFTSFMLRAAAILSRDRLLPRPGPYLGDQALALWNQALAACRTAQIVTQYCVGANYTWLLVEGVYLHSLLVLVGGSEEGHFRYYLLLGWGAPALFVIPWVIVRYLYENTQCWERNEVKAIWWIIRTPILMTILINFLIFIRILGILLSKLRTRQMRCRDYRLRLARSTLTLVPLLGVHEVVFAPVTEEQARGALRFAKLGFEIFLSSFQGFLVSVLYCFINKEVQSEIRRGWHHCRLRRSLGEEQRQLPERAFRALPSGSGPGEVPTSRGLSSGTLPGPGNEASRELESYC
# B1: Example 195 (peptide)
# peptide: YXEGTXTSDXSIXLDXIAQXKFIXXLIEGGKSSGAPPPS
# modifications: not fully specified; Aib2, αMeF(2F)6, 4Pal10, αMeL13, Orn16, Aib20, K21(AEEA2-CO-(CH2)12-CO2H), D-Glu24, αMeY25, K31(AEEA2-CO-(CH2)2-CO2H as printed), C-terminal NH2
# B2: Example 197 (peptide)
# peptide: B1 peptide with K21E, X24K
# modifications: Aib2, αMeF(2F)6, 4Pal10, αMeL13, Orn16, Aib20, K24(Z), αMeY25, K31(Z), C-terminal NH2; Z = (εK)-(γ-Glu)-CO-(CH2)12-CO2H
# B3: Example 192 (peptide)
# peptide: B1 peptide with K21E, X24K, E28K, K31P
# modifications: Aib2, αMeF(2F)6, 4Pal10, αMeL13, Orn16, Aib20, K24(Z), αMeY25, K28(Z), C-terminal NH2; Z = AEEA2-CO-(CH2)12-CO2H
# B4: Example 191 (peptide)
# peptide: B1 peptide with X24K, K31P
# modifications: Aib2, αMeF(2F)6, 4Pal10, αMeL13, Orn16, Aib20, K21(Z), K24(Z), αMeY25, C-terminal NH2; Z = AEEA2-CO-(CH2)12-CO2H
# B5: Example 199 (peptide)
# peptide: B1 peptide with S11X, I17K, K21E
# modifications: Aib2, αMeF(2F)6, 4Pal10, Dap11, αMeL13, Orn16, K17(Z), Aib20, D-Glu24, αMeY25, K31(Z), C-terminal NH2; Z = AEEA2-(γ-Glu)-CO-(CH2)12-CO2H
# B6: Example 181 (peptide)
# peptide: YXEGTXTSDVSIXLDXKAQXEFIKXLIEGGPSSGAPPPS
# modifications: Aib2, αMeF6, αMeL13, Orn16, K17(Z), Aib20, K24(Z), αMeY25, C-terminal NH2; Z = AEEA2-(γ-Glu)-CO-(CH2)12-CO2H
# B7: Example 193 (peptide)
# peptide: B1 peptide with K21E, X24K
# modifications: Aib2, αMeF(2F)6, 4Pal10, αMeL13, Orn16, Aib20, K24(Z), αMeY25, K31(Z), C-terminal NH2; Z = AEEA2-CO-(CH2)12-CO2H
# B8: Example 194 (peptide)
# peptide: YXEGTXTSDXSIXLDXIAQXEFIKXLIEGGPSSGAPPPSK
# modifications: Aib2, αMeF(2F)6, 4Pal10, αMeL13, Orn16, Aib20, K24(Z), αMeY25, K40(Z), C-terminal NH2; Z = AEEA2-CO-(CH2)12-CO2H
# B9: Example 196 (peptide)
# peptide: B8 peptide with E21K, K24X
# modifications: Aib2, αMeF(2F)6, 4Pal10, αMeL13, Orn16, Aib20, K21(Z), D-Glu24, αMeY25, K40(Z), C-terminal NH2; Z = AEEA2-CO-(CH2)12-CO2H
# Target: T1, human glucose-dependent insulinotropic …
# Test: cell-based or functional assay
Binder,cAMP EC50,cAMP Emax
B1,0.0219 nM,88.5%
B2,0.0338 nM,102%
B3,0.0375 nM,
B4,0.0601 nM,90%
B5,0.0587 nM,96.9%
B6,0.154 nM,94.6%
B7,0.0201 nM,97.2%
B8,0.0233 nM,93.1%
B9,0.0232 nM,

# Target: human glucagon receptor (human, UniProt P47871 26-477)
# Test: cell-based or functional assay
row,Binder,cAMP EC50
1,B1,> 9950 nM
2,B2,> 9950 nM
3,B3,> 9950 nM
4,B4,> 9950 nM
5,B5,> 9950 nM
6,B6,> 9950 nM
7,B7,> 9950 nM
8,B8,> 9950 nM
9,B9,> 9950 nM

# Target: human glucagon-like peptide-1 (GLP-1) receptor (human, UniProt P43220 24-463)
# Test: cell-based or functional assay
Binder,cAMP EC50,cAMP Emax
B1,0.343 nM,
B2,0.336 nM,
B3,0.518 nM,
B4,0.926 nM,98.6%
B5,3.2 nM,96.7%
B6,0.182 nM,
B7,0.382 nM,
B8,0.317 nM,103%
B9,0.356 nM,
